Reference: patent publication US20240189354A1

Molecular target: RQR8
Test: cell-based or functional assay

RQR8, sequence (chain, as listed by the source limits assumed): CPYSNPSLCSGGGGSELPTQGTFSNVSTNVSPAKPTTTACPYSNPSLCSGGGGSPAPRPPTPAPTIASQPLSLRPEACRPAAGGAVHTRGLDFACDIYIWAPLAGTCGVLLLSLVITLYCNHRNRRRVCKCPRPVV

## rituximab (antibody)
  complement-dependent cytotoxicity (CDC): CAR+ cells eliminated, RTX 100 µg/ml with baby rabbit complement, 2 hours: 85%
